Test system: HEK-293 cells
Assay: Resazurin high throughput proliferation assay, HEK-293
Format: cell-based, human
Conditions: versus base medium with 1% FBS; each ligand at three concentrations
Description: Resazurin is a metabolic dye which is converted to a fluorescent product. The greater the amount of the fluorescent product that is generated, the more metabolism, which directly correlates with cell number.
In this assay, resazurin was added to HEK-293 cells plated in each well of a 24-well assay plate containing a test medium containing one of the 16 ligands corresponding to the positive growth factors/cytokines and incubated at 37° C. After a 30 minute incubation, the plate was analyzed on a standard fluorescence plate reader. A higher RFU value from the plate reader translates to a higher cell density in the wells.
Briefly, the 16 ligands corresponding to positive growth factor/cytokine receptors were tested in the resazurin assay, each ligand at three different concentrations. […]
Cells were plated in each well of a 24-well tissue culture treated plate containing 1 ml of a base medium. […] After sufficient incubation time to convert some of the resazurin, the fluorescence was measured on a HTS 7000 Plus BioAssay Reader (Perkin-Elmer, Boston, Mass.). Readings were taken once a day until the culture was confluent (typically about 4 days). A plate with base medium only (no cells) was used as a blank and subtracted from the RFU reading to establish the final RFU values.

B1: oncostatin M (protein, UniProt P13725 26-221, looked up)
Oncostatin-M: AAIGSCSKEYRVLLGQLQKQTDLMQDTSRLLDPYIRIQGLDVPKLREHCRERPGAFPSEETLRGLGRRGFLQTLNATLGCVLHRLADLEQRLPKAQDLERSGLNIEDLEKLQMARPNILGLRNNIYCMAQLLDNSDTAEPTKAGRGASQPPTPTPASDAFQRKLEGCRFLHGYHRFMHSVGRVFSKWGESPNRSRR
notes: ligand of oncostatin M receptor
effect on HEK-293 proliferation (RFU, resazurin): significant effect

From patent US20040265880A1, “Genomic and proteomic approaches for the development of cell culture medium” (Sigma-Aldrich Co., priority 2003, published 2004)
